From the supplement of paper PMC9112550, “Optimization of the antimicrobial peptide Bac7 by deep mutational scanning” (BMC Biology, 2022)

The sequences below were run on Escherichia coli TOP10 (assay: shrunken log2 fold change of peptide-encoding DNA abundance (4.5 h post-induction vs induction); higher = less antimicrobial activity (less host growth inhibition)). Conditions: time post-induction: 4.5 h; library: site-saturation at positions 5, 18, 19, 20.
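Further: peptides expressed intracellularly from a pBAD plasmid library in pooled LB shake-flask culture, induced with 0.3% L-arabinose, DNA abundance read by NGS, three biological replicates, DESeq2 with apeglm shrinkage.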

In order of rising “shrunken log2 fold change” value:
1. RRIRIRPPRLPRPRPRPSNHPRP  -1.15
2. RRIRIRPPRLPRPRPRPIHNPRP  -0.936
3. RRIRYRPPRLPRPRPRPRHIPRP  -0.767
4. RRIRFRPPRLPRPRPRPDHPPRP  -0.593
5. RRIRLRPPRLPRPRPRPLHHPRP  -0.533
6. RRIRQRPPRLPRPRPRPNNQPRP  -0.477
7. RRIRDRPPRLPRPRPRPYHNPRP  -0.461
8. RRIRLRPPRLPRPRPRPGYMPRP  -0.459
9. RRIRYRPPRLPRPRPRPRYEPRP  -0.415
10. RRIRCRPPRLPRPRPRPIRSPRP  -0.389
11. RRIRQRPPRLPRPRPRPNMSPRP  -0.313
12. RRIRHRPPRLPRPRPRPTEYPRP  -0.301
13. RRIRTRPPRLPRPRPRPKSLPRP  -0.291
14. RRIRRRPPRLPRPRPRPLSIPRP  -0.288
15. RRIRCRPPRLPRPRPRPDYAPRP  -0.278
16. RRIRFRPPRLPRPRPRPEYWPRP  -0.245
17. RRIRIRPPRLPRPRPRPGDVPRP  -0.227
18. RRIRGRPPRLPRPRPRPWYTPRP  -0.225
19. RRIRHRPPRLPRPRPRPVSNPRP  -0.222
20. RRIRIRPPRLPRPRPRPKKAPRP  -0.209
21. RRIRVRPPRLPRPRPRPCPEPRP  -0.189
22. RRIRTRPPRLPRPRPRPLTWPRP  -0.174
23. RRIRSRPPRLPRPRPRPFQSPRP  -0.167
24. RRIRERPPRLPRPRPRPYCVPRP  -0.165
25. RRIRTRPPRLPRPRPRPAILPRP  -0.157
26. RRIRVRPPRLPRPRPRPWNLPRP  -0.14
27. RRIRKRPPRLPRPRPRPFSHPRP  -0.131
28. RRIRIRPPRLPRPRPRPCPDPRP  -0.127
29. RRIRWRPPRLPRPRPRPYWKPRP  -0.123
30. RRIRLRPPRLPRPRPRPEITPRP  -0.11
31. RRIRDRPPRLPRPRPRPWDCPRP  -0.103
32. RRIRPRPPRLPRPRPRPPSIPRP  -0.0949
33. RRIRFRPPRLPRPRPRPYGDPRP  -0.0819
34. RRIRTRPPRLPRPRPRPRYEPRP  -0.0806
35. RRIRRRPPRLPRPRPRPQEGPRP  -0.0768
36. RRIRRRPPRLPRPRPRPISRPRP  -0.0551
37. RRIRTRPPRLPRPRPRPDPTPRP  -0.0451
38. RRIRFRPPRLPRPRPRPWWCPRP  -0.0371
39. RRIRPRPPRLPRPRPRPDTAPRP  -0.0311
40. RRIRERPPRLPRPRPRPWDCPRP  -0.0136
41. RRIRRRPPRLPRPRPRPCWNPRP  -0.00252
42. RRIRNRPPRLPRPRPRPPNCPRP  0.00301
43. RRIRQRPPRLPRPRPRPSQFPRP  0.00374
44. RRIRHRPPRLPRPRPRPVACPRP  0.00664
45. RRIRNRPPRLPRPRPRPRMNPRP  0.00678
46. RRIRKRPPRLPRPRPRPAAKPRP  0.0103
47. RRIRHRPPRLPRPRPRPKDEPRP  0.0349
48. RRIRDRPPRLPRPRPRPCRVPRP  0.0479
49. RRIRPRPPRLPRPRPRPRHVPRP  0.0494
50. RRIRTRPPRLPRPRPRPNFSPRP  0.059
51. RRIRFRPPRLPRPRPRPIAMPRP  0.091
52. RRIRDRPPRLPRPRPRPMARPRP  0.0954
53. RRIRRRPPRLPRPRPRPWQLPRP  0.144
54. RRIRQRPPRLPRPRPRPPSLPRP  0.149
55. RRIRSRPPRLPRPRPRPVTQPRP  0.168
56. RRIRRRPPRLPRPRPRPNCEPRP  0.227
57. RRIRPRPPRLPRPRPRPHWSPRP  0.26
58. RRIRWRPPRLPRPRPRPCVAPRP  0.321
59. RRIRHRPPRLPRPRPRPVLEPRP  0.338
60. RRIRWRPPRLPRPRPRPGNEPRP  0.403
61. RRIRPRPPRLPRPRPRPRMWPRP  0.413
62. RRIRDRPPRLPRPRPRPAQFPRP  0.442
63. RRIRPRPPRLPRPRPRPPWQPRP  0.443
64. RRIRRRPPRLPRPRPRPSRPPRP  0.464
65. RRIRPRPPRLPRPRPRPGATPRP  0.54
66. RRIRWRPPRLPRPRPRPALAPRP  0.555
67. RRIRLRPPRLPRPRPRPGLPPRP  0.576
68. RRIRTRPPRLPRPRPRPPDWPRP  0.705
69. RRIRKRPPRLPRPRPRPDPQPRP  0.729
70. RRIRGRPPRLPRPRPRPKIGPRP  0.752
71. RRIRDRPPRLPRPRPRPMMRPRP  0.763
72. RRIRKRPPRLPRPRPRPRRGPRP  0.799
73. RRIRWRPPRLPRPRPRPEPEPRP  0.838
74. RRIRHRPPRLPRPRPRPERGPRP  1.02
75. RRIRCRPPRLPRPRPRPWPCPRP  1.63
